# Measurements: FireProtDB (doi:10.1126/science.aai7825)
# Details: Escherichia coli (strain K12); pH 7.5; Thermal; Intensity; HEPES 20mM; transition: 2
# Adenylate kinase wild type, P69441, sequence (P69441 whole entry): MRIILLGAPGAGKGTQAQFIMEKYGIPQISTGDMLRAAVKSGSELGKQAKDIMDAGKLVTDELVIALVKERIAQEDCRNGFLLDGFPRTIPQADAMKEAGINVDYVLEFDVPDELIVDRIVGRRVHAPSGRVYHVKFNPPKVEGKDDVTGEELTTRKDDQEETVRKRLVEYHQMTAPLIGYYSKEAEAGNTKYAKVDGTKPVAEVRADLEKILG
substance,measurement,value
"Adenylate kinase wild type, P69441",Tm,42.5 °C
